Target: 3β-OH-Δ5-6-cholesterol-5β-reductase (5βChR) from Limosilactobacillus fermentum NKN51 (Limosilactobacillus fermentum NKN51)
Assay: SEC

## 3β-OH-Δ5-6-cholesterol-5β-reductase (5βChR) from Limosilactobacillus fermentum NKN51 (enzyme)
  stoichiometry N: 2
